Numbering of substitutions follows the chain as printed. Names and notes keep the numbering of the source.
T1: human FcγRIIa(R) (human, UniProt P12318 36-217)
T1 construct: also called FcgRIIaR; hFcgRIIa(R)
T1 chain: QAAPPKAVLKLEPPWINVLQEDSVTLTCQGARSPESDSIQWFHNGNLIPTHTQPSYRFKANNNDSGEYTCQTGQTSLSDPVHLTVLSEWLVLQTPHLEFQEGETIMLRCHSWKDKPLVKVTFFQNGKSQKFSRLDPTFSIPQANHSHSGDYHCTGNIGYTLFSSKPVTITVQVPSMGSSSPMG

T2: human FcγRIIa(H) (human, UniProt P12318 36-217)
T2 construct: also called FcgRIIaH; hFcgRIIa(H)
T2 sequence: T1 chain with R133H

T3: human FcγRIIb (human, UniProt P31994 43-217, limits assumed)
T3 construct: also called FcgRIIb; hFcgRIIb
T3 sequence: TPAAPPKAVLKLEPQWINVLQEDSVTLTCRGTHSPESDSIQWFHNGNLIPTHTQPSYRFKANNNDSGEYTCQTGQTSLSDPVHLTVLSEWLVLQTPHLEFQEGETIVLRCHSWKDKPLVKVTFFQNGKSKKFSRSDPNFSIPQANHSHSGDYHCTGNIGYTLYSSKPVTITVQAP

T4: human FcγRIIa(H) (human, UniProt P12318 36-217)
T4 construct: also called FcgRIIaH; FcγRIIa type H
T4 sequence: T1 chain with R133H

T5: human FcγRIIb (human, UniProt P31994 43-217, limits assumed)
T5 construct: also called FcgRIIb
T5 sequence: T3 sequence

T6: human FcγRIIa(R) (human, UniProt P12318 36-217)
T6 construct: also called FcgRIIaR; FcγRIIa type R
T6 chain: T1 chain

B1: GpH7-B3 A327H/GpL16-k0 (antibody, human IgG1)
heavy: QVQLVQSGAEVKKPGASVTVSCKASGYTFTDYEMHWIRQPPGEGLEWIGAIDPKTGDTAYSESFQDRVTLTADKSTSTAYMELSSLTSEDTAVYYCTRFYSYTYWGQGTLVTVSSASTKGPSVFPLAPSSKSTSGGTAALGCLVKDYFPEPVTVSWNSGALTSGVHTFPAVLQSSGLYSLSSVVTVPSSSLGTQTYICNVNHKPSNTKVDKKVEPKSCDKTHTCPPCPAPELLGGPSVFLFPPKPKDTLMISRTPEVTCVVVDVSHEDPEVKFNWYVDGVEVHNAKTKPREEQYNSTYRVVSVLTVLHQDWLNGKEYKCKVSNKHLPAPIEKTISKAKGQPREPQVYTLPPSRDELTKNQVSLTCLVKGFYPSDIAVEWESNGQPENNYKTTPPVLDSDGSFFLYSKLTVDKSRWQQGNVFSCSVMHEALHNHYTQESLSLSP
light: DIVMTQSPLSLPVTPGEPASISCQASESLVHSNRNTYLHWYLQKPGQSPQLLIYKVSNRFSGVPDRFSGSGSGTDFTLKISRVEAEDVGVYYCSQNTHVPPTFGQGTKVEIE
notes: B3 variant; copies: 2 + 2
B2: GpH7-B3 D270H/GpL16-k0 (antibody, human IgG1)
heavy: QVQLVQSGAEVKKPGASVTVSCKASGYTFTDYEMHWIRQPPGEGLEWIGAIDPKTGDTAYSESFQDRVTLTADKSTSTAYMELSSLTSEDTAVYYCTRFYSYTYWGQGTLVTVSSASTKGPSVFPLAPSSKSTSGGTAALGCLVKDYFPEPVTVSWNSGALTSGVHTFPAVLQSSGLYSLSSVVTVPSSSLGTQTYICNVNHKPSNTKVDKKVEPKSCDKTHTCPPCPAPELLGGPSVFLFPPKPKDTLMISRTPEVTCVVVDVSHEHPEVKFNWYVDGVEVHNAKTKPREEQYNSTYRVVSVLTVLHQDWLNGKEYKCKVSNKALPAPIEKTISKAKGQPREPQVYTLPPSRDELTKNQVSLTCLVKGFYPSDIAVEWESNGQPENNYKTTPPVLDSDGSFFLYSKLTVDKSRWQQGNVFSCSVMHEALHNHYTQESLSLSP
light: B1 light
notes: B3 variant; copies: 2 + 2
B3: GpH7-B3 D270A/GpL16-k0 (antibody, human IgG1)
heavy: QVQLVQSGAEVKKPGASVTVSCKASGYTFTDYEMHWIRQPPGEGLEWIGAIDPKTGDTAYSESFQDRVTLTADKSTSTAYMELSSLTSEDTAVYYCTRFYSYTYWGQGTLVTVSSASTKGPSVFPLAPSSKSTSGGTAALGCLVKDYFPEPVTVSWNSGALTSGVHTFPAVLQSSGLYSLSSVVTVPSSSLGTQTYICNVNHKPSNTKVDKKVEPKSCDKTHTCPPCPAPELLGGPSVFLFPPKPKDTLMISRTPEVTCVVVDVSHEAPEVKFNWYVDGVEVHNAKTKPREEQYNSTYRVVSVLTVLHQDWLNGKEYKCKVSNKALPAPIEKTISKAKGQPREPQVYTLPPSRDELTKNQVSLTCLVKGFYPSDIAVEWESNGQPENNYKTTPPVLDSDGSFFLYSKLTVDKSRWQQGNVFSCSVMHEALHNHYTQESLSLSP
light: B1 light
notes: B3 variant; copies: 2 + 2
B4: GpH7-B3 A330S/GpL16-k0 (antibody, human IgG1)
heavy: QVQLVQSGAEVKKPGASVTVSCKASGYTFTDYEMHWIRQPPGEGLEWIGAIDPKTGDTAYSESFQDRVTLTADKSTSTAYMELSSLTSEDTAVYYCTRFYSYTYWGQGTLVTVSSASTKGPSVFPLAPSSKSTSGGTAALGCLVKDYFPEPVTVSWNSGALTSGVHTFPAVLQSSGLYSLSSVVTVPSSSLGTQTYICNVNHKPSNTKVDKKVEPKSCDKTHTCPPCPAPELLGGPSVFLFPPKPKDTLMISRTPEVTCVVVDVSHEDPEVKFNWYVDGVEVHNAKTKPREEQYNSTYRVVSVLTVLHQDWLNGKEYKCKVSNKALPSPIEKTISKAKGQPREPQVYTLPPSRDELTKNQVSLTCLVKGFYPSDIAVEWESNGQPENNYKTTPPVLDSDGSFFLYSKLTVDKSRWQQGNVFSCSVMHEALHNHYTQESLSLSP
light: B1 light
notes: B3 variant; copies: 2 + 2
B5: GpH7-B3 A327I/GpL16-k0 (antibody, human IgG1)
heavy: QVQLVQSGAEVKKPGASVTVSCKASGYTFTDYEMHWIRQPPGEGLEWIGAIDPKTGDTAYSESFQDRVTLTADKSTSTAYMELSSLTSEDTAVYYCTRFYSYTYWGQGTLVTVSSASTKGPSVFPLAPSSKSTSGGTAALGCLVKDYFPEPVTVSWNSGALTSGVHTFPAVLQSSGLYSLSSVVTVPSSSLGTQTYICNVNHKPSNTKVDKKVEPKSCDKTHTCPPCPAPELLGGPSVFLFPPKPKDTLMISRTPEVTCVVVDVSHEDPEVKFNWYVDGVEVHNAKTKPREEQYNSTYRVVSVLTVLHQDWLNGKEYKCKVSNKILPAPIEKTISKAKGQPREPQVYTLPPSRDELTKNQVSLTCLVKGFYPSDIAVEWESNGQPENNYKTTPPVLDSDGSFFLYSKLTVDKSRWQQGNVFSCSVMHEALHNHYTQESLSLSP
light: B1 light
notes: B3 variant; copies: 2 + 2
B6: GpH7-B3 A327M/GpL16-k0 (antibody, human IgG1)
heavy: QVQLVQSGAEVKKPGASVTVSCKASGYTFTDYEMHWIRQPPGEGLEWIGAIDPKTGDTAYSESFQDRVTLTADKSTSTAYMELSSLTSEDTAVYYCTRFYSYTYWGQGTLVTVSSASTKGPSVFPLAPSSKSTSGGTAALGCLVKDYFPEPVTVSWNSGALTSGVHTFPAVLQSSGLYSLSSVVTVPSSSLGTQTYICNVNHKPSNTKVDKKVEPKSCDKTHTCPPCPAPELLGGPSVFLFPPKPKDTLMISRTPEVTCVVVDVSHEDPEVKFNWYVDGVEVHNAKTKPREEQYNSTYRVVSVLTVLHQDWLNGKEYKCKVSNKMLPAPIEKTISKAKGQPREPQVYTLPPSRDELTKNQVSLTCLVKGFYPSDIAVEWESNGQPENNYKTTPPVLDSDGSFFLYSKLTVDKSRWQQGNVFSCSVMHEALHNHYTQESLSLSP
light: B1 light
notes: B3 variant; copies: 2 + 2
B7: GpH7-B3 A327P/GpL16-k0 (antibody, human IgG1)
heavy: not shown
light: B1 light
notes: B3 variant; copies: 2 + 2
B8: GpH7-B3 A327F/GpL16-k0 (antibody, human IgG1)
heavy: not shown
light: B1 light
notes: B3 variant; copies: 2 + 2
B9: GpH7-B3 A327W/GpL16-k0 (antibody, human IgG1)
heavy: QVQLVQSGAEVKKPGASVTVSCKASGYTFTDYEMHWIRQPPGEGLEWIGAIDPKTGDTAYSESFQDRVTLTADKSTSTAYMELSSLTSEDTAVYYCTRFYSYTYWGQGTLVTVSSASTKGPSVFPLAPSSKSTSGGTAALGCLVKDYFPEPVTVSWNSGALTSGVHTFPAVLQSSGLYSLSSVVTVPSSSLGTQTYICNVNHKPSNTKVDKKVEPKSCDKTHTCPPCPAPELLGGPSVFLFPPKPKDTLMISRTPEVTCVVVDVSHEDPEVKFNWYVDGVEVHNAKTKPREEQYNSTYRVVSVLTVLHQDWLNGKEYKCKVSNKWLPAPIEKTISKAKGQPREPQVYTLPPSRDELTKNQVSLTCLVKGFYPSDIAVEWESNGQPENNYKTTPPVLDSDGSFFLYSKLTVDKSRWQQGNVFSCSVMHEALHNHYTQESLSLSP
light: B1 light
notes: B3 variant; copies: 2 + 2
B10: GpH7-B3 A327R/GpL16-k0 (antibody, human IgG1)
heavy: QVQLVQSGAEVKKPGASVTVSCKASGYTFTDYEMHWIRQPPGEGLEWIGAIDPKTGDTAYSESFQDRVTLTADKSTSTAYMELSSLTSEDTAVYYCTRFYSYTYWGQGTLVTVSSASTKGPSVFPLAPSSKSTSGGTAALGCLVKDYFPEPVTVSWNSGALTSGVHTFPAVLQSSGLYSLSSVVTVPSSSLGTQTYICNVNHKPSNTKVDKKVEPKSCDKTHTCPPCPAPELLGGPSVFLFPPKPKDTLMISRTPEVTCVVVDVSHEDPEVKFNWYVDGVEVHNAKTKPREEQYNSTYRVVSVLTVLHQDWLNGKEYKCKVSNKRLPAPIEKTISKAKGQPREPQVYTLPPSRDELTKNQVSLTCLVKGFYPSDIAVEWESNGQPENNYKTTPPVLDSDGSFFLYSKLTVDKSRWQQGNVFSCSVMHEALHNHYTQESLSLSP
light: B1 light
notes: B3 variant; copies: 2 + 2
B11: GpH7-B3 D270F/GpL16-k0 (antibody, human IgG1)
heavy: not shown
light: B1 light
notes: B3 variant; copies: 2 + 2
B12: GpH7-B3 variant V266Y/GpL16-k0 (antibody, human IgG1)
heavy: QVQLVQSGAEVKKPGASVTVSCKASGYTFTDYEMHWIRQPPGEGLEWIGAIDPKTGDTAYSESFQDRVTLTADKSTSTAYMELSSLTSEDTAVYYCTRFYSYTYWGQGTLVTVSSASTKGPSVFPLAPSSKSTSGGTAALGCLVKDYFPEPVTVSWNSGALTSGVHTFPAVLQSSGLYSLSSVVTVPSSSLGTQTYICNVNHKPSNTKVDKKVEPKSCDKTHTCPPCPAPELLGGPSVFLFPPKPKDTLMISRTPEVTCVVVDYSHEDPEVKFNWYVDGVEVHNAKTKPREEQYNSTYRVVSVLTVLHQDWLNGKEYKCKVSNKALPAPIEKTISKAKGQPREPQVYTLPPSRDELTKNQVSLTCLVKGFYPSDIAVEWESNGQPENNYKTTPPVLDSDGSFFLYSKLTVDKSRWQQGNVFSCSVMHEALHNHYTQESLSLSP
light: B1 light
notes: copies: 2 + 2
B13: GpH7-B3 variant G237K/GpL16-k0 (antibody, human IgG1)
heavy: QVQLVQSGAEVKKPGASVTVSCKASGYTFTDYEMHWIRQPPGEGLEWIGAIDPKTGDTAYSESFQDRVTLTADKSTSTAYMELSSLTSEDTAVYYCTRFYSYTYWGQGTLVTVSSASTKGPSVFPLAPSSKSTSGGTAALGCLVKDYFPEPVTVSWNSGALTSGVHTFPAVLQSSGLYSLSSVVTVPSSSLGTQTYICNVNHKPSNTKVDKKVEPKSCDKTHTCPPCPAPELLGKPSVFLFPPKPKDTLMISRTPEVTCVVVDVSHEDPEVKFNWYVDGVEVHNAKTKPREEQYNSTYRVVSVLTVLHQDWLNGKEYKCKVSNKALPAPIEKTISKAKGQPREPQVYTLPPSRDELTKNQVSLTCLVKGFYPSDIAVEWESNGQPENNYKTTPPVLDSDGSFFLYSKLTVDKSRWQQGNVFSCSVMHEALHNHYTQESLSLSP
light: B1 light
notes: copies: 2 + 2
B14: GpH7-B3 variant V2668/GpL16-k0 (antibody, human IgG1)
heavy: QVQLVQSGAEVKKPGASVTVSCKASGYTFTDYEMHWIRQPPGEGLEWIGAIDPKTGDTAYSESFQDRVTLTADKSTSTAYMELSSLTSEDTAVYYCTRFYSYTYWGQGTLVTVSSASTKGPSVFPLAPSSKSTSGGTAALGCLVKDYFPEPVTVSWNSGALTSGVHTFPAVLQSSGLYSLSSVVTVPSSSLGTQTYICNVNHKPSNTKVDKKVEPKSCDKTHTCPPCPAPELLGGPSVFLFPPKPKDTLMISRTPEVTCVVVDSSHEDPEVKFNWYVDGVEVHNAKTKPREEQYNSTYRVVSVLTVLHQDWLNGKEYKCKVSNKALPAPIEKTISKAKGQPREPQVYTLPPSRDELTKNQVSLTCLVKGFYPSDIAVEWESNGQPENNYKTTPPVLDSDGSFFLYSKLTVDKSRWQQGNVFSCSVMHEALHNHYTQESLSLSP
light: B1 light
notes: copies: 2 + 2

Target: T1, human FcγRIIa(R)
Assay: SPR, captured antibody;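 note: antibody captured on a sensor chip, Fcγ receptor flowed over at 25 °C, receptor binding normalized to the captured antibody amount and expressed relative to the reference antibody ×100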

Row | relative binding activity | Binder
1 | 32 % of GpH7-B3/GpL16-k0 | B1
2 | 0 % of GpH7-B3/GpL16-k0 | B2
3 | 3 % of GpH7-B3/GpL16-k0 | B3
4 | 0 % of GpH7-B3/GpL16-k0 | B4
5 | 37 % of GpH7-B3/GpL16-k0 | B5
6 | 38 % of GpH7-B3/GpL16-k0 | B6
7 | 14 % of GpH7-B3/GpL16-k0 | B7
8 | 17 % of GpH7-B3/GpL16-k0 | B8
9 | 34 % of GpH7-B3/GpL16-k0 | B9
10 | -11 % of GpH7-B3/GpL16-k0 | B10
11 | 5 % of GpH7-B3/GpL16-k0 | B11

target: T2, human FcγRIIa(H); assay: SPR, captured antibody;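 note: antibody captured on a sensor chip, Fcγ receptor flowed over at 25 °C, receptor binding normalized to the captured antibody amount and expressed relative to the reference antibody ×100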

Row | relative binding activity | Binder
12 | 23 % of GpH7-B3/GpL16-k0 | B1
13 | 53 % of GpH7-B3/GpL16-k0 | B2
14 | 66 % of GpH7-B3/GpL16-k0 | B3
15 | 0 % of GpH7-B3/GpL16-k0 | B4
16 | 12 % of GpH7-B3/GpL16-k0 | B5
17 | 55 % of GpH7-B3/GpL16-k0 | B6
18 | 16 % of GpH7-B3/GpL16-k0 | B7
19 | 37 % of GpH7-B3/GpL16-k0 | B8
20 | 21 % of GpH7-B3/GpL16-k0 | B9
21 | -2 % of GpH7-B3/GpL16-k0 | B10
22 | 62 % of GpH7-B3/GpL16-k0 | B11

target: T7, human FcγRIa (human, UniProt P12314 16-292, limits assumed); assay: SPR, captured antibody;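 note: antibody captured on a sensor chip, Fcγ receptor flowed over at 25 °C, receptor binding normalized to the captured antibody amount and expressed relative to the reference antibody ×100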
T7 construct: also called FcgRIa; hFcgRIa

Row | relative binding activity | Binder
23 | 93 % of GpH7-B3/GpL16-k0 | B1
24 | 70 % of GpH7-B3/GpL16-k0 | B2
25 | 87 % of GpH7-B3/GpL16-k0 | B3
26 | 58 % of GpH7-B3/GpL16-k0 | B4
27 | 98 % of GpH7-B3/GpL16-k0 | B5
28 | 95 % of GpH7-B3/GpL16-k0 | B6
29 | 95 % of GpH7-B3/GpL16-k0 | B7
30 | 95 % of GpH7-B3/GpL16-k0 | B8
31 | 100 % of GpH7-B3/GpL16-k0 | B9
32 | 51 % of GpH7-B3/GpL16-k0 | B10
33 | 88 % of GpH7-B3/GpL16-k0 | B11

target: T3, human FcγRIIb; assay: SPR, captured antibody;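 note: antibody captured on a sensor chip, Fcγ receptor flowed over at 25 °C, receptor binding normalized to the captured antibody amount and expressed relative to the reference antibody ×100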

Row | relative binding activity | Binder
34 | 35 % of GpH7-B3/GpL16-k0 | B1
35 | -2 % of GpH7-B3/GpL16-k0 | B2
36 | 5 % of GpH7-B3/GpL16-k0 | B3
37 | -3 % of GpH7-B3/GpL16-k0 | B4
38 | 46 % of GpH7-B3/GpL16-k0 | B5
39 | 40 % of GpH7-B3/GpL16-k0 | B6
40 | 18 % of GpH7-B3/GpL16-k0 | B7
41 | 22 % of GpH7-B3/GpL16-k0 | B8
42 | 34 % of GpH7-B3/GpL16-k0 | B9
43 | -3 % of GpH7-B3/GpL16-k0 | B10
44 | 5 % of GpH7-B3/GpL16-k0 | B11

target: T8, human FcγRIIIa(F) (human, UniProt P08637 17-208, limits assumed); assay: SPR (Biacore);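 note: antibody variants captured on sensor chip, Fcγ receptor flowed over at 25 °C, bound receptor normalized to amount of captured antibody, expressed relative to reference antibody set as 100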
T8 construct: also called FcgRIIIaF; allotype F158

Row | relative binding activity | Binder
45 | 0 % of GpH7-B3/GpL16-k0 | B12
46 | -1 % of GpH7-B3/GpL16-k0 | B13
47 | 3 % of GpH7-B3/GpL16-k0 | B14

target: T4, human FcγRIIa(H); assay: SPR (Biacore);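 note: antibody variants captured on sensor chip, Fcγ receptor flowed over at 25 °C, bound receptor normalized to amount of captured antibody, expressed relative to reference antibody set as 100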

Row | relative binding activity | Binder
48 | 2 % of GpH7-B3/GpL16-k0 | B12
49 | 0 % of GpH7-B3/GpL16-k0 | B13
50 | 5 % of GpH7-B3/GpL16-k0 | B14

target: T5, human FcγRIIb; assay: SPR (Biacore);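 note: antibody variants captured on sensor chip, Fcγ receptor flowed over at 25 °C, bound receptor normalized to amount of captured antibody, expressed relative to reference antibody set as 100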

Row | relative binding activity | Binder
51 | 15 % of GpH7-B3/GpL16-k0 | B12
52 | -1 % of GpH7-B3/GpL16-k0 | B13
53 | 18 % of GpH7-B3/GpL16-k0 | B14

target: T9, human FcγRIa (human, UniProt P12314 16-292, limits assumed); assay: SPR (Biacore);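 note: antibody variants captured on sensor chip, Fcγ receptor flowed over at 25 °C, bound receptor normalized to amount of captured antibody, expressed relative to reference antibody set as 100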
T9 construct: also called FcgRIa; FcγRI (CD64)

Row | relative binding activity | Binder
54 | 75 % of GpH7-B3/GpL16-k0 | B12
55 | 2 % of GpH7-B3/GpL16-k0 | B13
56 | 79 % of GpH7-B3/GpL16-k0 | B14

Target: T6, human FcγRIIa(R)
Assay: SPR (Biacore)

Row | relative binding activity | Binder
57 | 18 % of GpH7-B3/GpL16-k0 | B12
58 | 0 % of GpH7-B3/GpL16-k0 | B13
59 | 26 % of GpH7-B3/GpL16-k0 | B14

— patent publication US20200199241A1 (Chugai, published 2020)
